Assay [1] deals with T1, Myc-human Hsp90beta (human, UniProt P08238 1-724).
T1 construct: also called myc-Hsp90beta; myc-tagged Hsp90beta; not shown: N-terminal myc tag of pCMV-3Tag2
Nature of the assay: anti-Flag co-immunoprecipitation from cotransfected HEK293T, western blot anti-myc (FIG. 2C).

Assay [2] has as its target T1, Myc-human Hsp90beta. Nature of the assay: anti-Flag co-immunoprecipitation from cotransfected HEK293T, western blot anti-myc. In general terms: Immunoblotting shows a protein as a band on a membrane.

T1 sequence (P08238 whole entry): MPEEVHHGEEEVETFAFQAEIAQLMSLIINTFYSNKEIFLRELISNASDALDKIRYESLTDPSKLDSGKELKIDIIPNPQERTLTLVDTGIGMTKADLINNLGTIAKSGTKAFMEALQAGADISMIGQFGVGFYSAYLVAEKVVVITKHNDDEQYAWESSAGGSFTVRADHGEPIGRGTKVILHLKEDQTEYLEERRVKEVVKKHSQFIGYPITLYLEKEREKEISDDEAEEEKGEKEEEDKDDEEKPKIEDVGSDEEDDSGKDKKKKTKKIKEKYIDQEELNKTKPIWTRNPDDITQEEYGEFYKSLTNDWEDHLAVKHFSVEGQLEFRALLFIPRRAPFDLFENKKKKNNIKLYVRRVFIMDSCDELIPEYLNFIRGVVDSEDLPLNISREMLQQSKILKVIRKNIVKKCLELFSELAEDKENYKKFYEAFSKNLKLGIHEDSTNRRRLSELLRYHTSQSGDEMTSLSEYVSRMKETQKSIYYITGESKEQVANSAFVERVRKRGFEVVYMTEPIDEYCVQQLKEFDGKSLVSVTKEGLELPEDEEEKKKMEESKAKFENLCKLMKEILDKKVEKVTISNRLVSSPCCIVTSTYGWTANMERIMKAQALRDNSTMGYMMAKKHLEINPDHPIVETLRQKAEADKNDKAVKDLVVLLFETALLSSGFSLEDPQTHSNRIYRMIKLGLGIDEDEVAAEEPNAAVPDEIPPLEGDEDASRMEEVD

B1: AID-APOBEC2 chimera #1 (enzyme)
chain: MDSLLMNRRKFLYQFKNVEYSSGRNKTFLCYVVEAQGKGGQVQASRGYLEDEHAAELLFLRYISDWDLDPGRCYRVTWFTSWSPCYDCARHVADFLRGNPNLSLRIFTARLYFCEDRKAEPEGLRRLHRAGVQIAIMTFKDYFYCWNTFVENHERTFKAWEGLHENSVRLSRQLRRILLPLYEVDDLRDAFRTLGL
notes: range 60-96; Flag-tagged in the HEK293T co-immunoprecipitation; also called AID-A2 #1; not shown: its end of the chain and its l
Turning to B1, the binding result in the assay with Myc-human Hsp90beta [1] is reported as “no binding”.

B2: Flag-tagged APOBEC2 (enzyme, UniProt Q9Y235 1-224, looked up)
chain: MAQKEEAAVATEAASQNGEDLENLDDPEKLKELIELPPFEIVTGERLPANFFKFQFRNVEYSSGRNKTFLCYVVEAQGKGGQVQASRGYLEDEHAAAHAEEAFFNTILPAFDPALRYNVTWYVSSSPCAACADRIIKTLSKTKNLRLLILVGRLFMWEEPEIQAALKKLKEAGCKLRIMKPQDFEYVWQNFVEQEEGESKAFQPWEDIQENFLYYEEKLADILK
notes: also called A2; not shown: N-terminal Flag tag (annealed oligonucleotides AO1 and AO2)
As for B2, in the assay with Myc-human Hsp90beta [2], the binding result is reported as “no binding”.

B3: Flag-tagged rat APOBEC1 (enzyme, UniProt P38483 1-229, looked up)
chain: MSSETGPVAVDPTLRRRIEPHEFEVFFDPRELRKETCLLYEINWGGRHSIWRHTSQNTNKHVEVNFIEKFTTERYFCPNTRCSITWFLSWSPCGECSRAITEFLSRYPHVTLFIYIARLYHHADPRNRQGLRDLISSGVTIQIMTEQESGYCWRNFVNYSPSNEAHWPRYPHLWVRLYVLELYCIILGLPPCLNILRRKQPQLTFFTIALQSCHYQRLPPHILWATGLK
notes: also called A1; not shown: N-terminal Flag tag (annealed oligonucleotides AO1 and AO2)
Regarding B3, the binding result with Myc-human Hsp90beta [2] is listed as “no binding”.

For the origin of these results see US20110237560A1 (published 2011).
